Test results taken from patent US20070042353A1, “HCV polymerase suitable for crystal structure analysis and method for using the enzyme” (Japan Tobacco Inc., priority 1999, published 2007).
Where no end group is shown, it is not given here.

Columns and labels:
HCV polymerase = assay: Measurement of the HCV polymerase activity (3H-UTP incorporation into template RNA); assay type: biochemical, HCV-BK strain; conditions: radioactivity of the NS5B591 enzyme reaction as standard; polymerase 1 μg/ml, 25° C., 90 min
From the text: The DNA fragment (148 bp) containing polyU and 3′ X sequence was completely synthesized using synthetic primers designed based on the sequence of the 3′ untranslational region of the HCV genome, and cloned into plasmid pBluescript SK II (+) (Stratagene). The cDNA encoding the full length NS5B prepared in the same manner as in Example 1 was digested with restriction enzyme KpnI to obtain the cDNA fragment covers the region from the restriction enzyme cleavage site to the stop codon. This cDNA fragment was ligated to the upstream of 3′ untranslational region DNA of pBluescript SK II (+). The DNA insert of about 450 bp in total was used as a template for preparing the template RNA. The plasmid was cleaved just after 3′ X sequence, circulated, treated with phenol/chloroform, and purified by ethanol precipitation to recover the DNA.
Using the purified DNA as a template, utilizing the promoter in pBluescript SK II (+), RNA was synthesized by the run-off method using MEGAscript RNA synthesis kit (Ambion), and T7 RNA polymerase (at 37° C. for 3 hours). DNaseI was added thereto and further incubated for 1 hour, and the template DNA was decomposed and removed to obtain the crude RNA product. The crude product was treated with phenol/chloroform, and purified by ethanol precipitation to obtain the desired template RNA. After confirming the quality of the RNA by agarose gel electrophoresis, the RNA was stored at −80° C. The RNA is a template suitable for the highly sensitive measurement of the polymerase activity. […]
The reaction was terminated by adding 10% trichloroacetic acid at 4° C. and 1% sodium diphosphate solution (150 μl) to the reaction mixture, and kept in ice for 15 min to precipitate the RNA. […] A liquid scintillation cocktail (Packard) was added to the RNA synthesized by the enzyme reaction, and the radioactivity of the RNA was measured by a liquid scintillation counter.
The activity of the HCV polymerase was calculated from the value of radioactivity in the enzyme reaction of each NS5B using the radioactivity in the enzyme reaction of NS5B591 as a standard.

NS5B544 = molecular target: T1, NS5B544 (Hepatitis C virus genotype 1b, UniProt P26663); assay: HCV polymerase-inhibitory activity of synthetic peptide, pre-incubated with NS5B544; assay type: biochemical, HCV-BK strain; conditions: final concentration of 30 μM; pre-incubated with NS5B544 at 25° C. for 30 minutes
T1 construct: residue 1 (Ser) of the NS5B, a C-terminal amino acid residue of X′ is any one of amino acid residues 531 (Lys) to 544 (Gln); made in house; host or cells: E. coli
Description: The reaction mixture with the composition mentioned below (30 μl) was reacted at 25° C. for 90 min. • Reaction mixture: the HCV polymerase obtained in Example 1 (1 μg/ml), the template RNA obtained in Example 5 (10 μg/ml), ATP (50 μM), GTP (50 μM), CTP (50 μM), UTP (2 μM), [5, 6-^3H] UTP (46 Ci/mmol (Amersham), 1.5 μCi), 20 mM Tris-HCl (pH 7.5), EDTA (1 mM), MgCl2 (5 mM), NaCl (50 mM), DTT (1 mM), BSA (0.01%).
The reaction was terminated by adding 10% trichloroacetic acid at 4° C. and 1% sodium diphosphate solution (150 μl) to the reaction mixture, and kept in ice for 15 min to precipitate the RNA. The RNA was trapped on a glass filter (Whatman, GF/C) by suction filtration. The filter was washed with a solution containing 1% trichloroacetic acid and 0.1% sodium diphosphate, then with 90% ethanol, and dried. A liquid scintillation cocktail (Packard) was added to the RNA synthesized by the enzyme reaction, and the radioactivity of the RNA was measured by a liquid scintillation counter.
Next, a synthetic peptide was prepared by a conventional method and its HCV polymerase-inhibitory activity was assessed. […] The synthetic peptide and NS5B544 were pre-incubated at 25° C. for 30 minutes, and the polymerase activity was measured in the same manner as in Example 5. […]

Row | Substance | relative activity (%) (HCV polymerase) | inhibition of the polymerase activity (NS5B544)
1 | NS5B544: consecutive amino acid sequence 1-544 of NS5B with histidine tag GSHHDHHH | 2014% | 
2 | KDLSGWFK [positions 546 to 551 of HCV polymerase NS5B with a Lys residue attached to both ends] |  | 40 to 50%
3 | NS5B536: consecutive amino acid sequence 1-536 of NS5B with histidine tag | 2107% | 
4 | NS5B531: consecutive amino acid sequence 1-531 of NS5B with histidine tag | 2149% | 
